In patent publication US20240002434A1 (ICHNOS SCIENCES, published 2024):
Where “and” joins values, the source holds several entries; their conditions need not be identical. Identical values can stand only once. Blank lines part the entries; values can stand above or below the binder they belong to.

Columns and labels:
Human EGFR-his [1] = biological target: T1, Human EGFR-his (human, UniProt P00533 25-645); assay: SPR, BEAT®3 captured on Protein G chip, EGFR-his as analyte; sample held at pH 11.2 for 2 h; mean of 2
T1 construct: Soluble his-tagged antigen injected as analyte in SPR; also called hsEGFR; not shown: his tag

Human EGFR-his [2] = biological target: T1, Human EGFR-his; assay: SPR, BEAT®3 captured on Protein G chip, EGFR-his as analyte; sample held at pH 11.2 for 24 h; mean of 2
Human EGFR-his [3] = biological target: T1, Human EGFR-his; assay: SPR, BEAT®3 sample captured on Protein G chip, EGFR-his as analyte; mean of 4 reference replicates
Human EGFR-his [4] = biological target: T1, Human EGFR-his; assay: SPR, BEAT®3 captured on Protein G chip, EGFR-his as analyte; sample held at pH 11.2 for 4 h
Human EGFR-his [5] = biological target: T1, Human EGFR-his; assay: SPR, BEAT®3 captured on Protein G chip, EGFR-his as analyte; sample held at pH 11.2 for 0 h
Human EGFR-his [6] = biological target: T1, Human EGFR-his; assay: SPR, BEAT®3 captured on Protein G chip, EGFR-his as analyte; sample held at pH 11.2 for 2 h
Human EGFR-his [7] = biological target: T1, Human EGFR-his; assay: SPR, BEAT®3 captured on Protein G chip, EGFR-his as analyte; sample held at pH 11.2 for 4 h; mean of 2
[8] = biological target: EGFR on SK-BR-3 target cells (UniProt P00533 25-1210, limits assumed); assay: cell-based or functional assay
[9] = biological target: CD3ε on Jurkat-NFAT responder cells (UniProt P07766 23-207); assay: cell-based or functional assay
Human EGFR-his [10] = biological target: T1, Human EGFR-his; assay: SPR, BEAT®3 captured on Protein G chip, EGFR-his as analyte; sample held at pH 11.2 for 0 h; mean of 2
Human EGFR-his [11] = biological target: T1, Human EGFR-his; assay: SPR, BEAT®3 captured on Protein G chip, EGFR-his as analyte; sample held at pH 11.2 for 24 h
human OX40 [12] = biological target: T2, human OX40 (human, UniProt P43489 29-214, limits assumed); assay: SPR (Biacore), mean KD; Ab1 after 1 h at pH 11.2
T2 construct: The construct used in the Biacore assay is not described; also called OX40R; OX40 receptor
T2 sequence (looked up): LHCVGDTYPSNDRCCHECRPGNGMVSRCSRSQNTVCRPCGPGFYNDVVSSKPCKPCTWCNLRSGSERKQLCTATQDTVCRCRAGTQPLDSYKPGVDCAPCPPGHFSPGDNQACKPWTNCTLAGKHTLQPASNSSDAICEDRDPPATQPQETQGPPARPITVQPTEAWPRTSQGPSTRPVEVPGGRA

human FcγR3a [13] = biological target: T3, human FcγR3a (human, UniProt P08637 17-208, limits assumed); assay: SPR (Biacore), mean KD; Ab1 after 1 h at pH 11.2
T3 construct: The construct and allotype (V158/F158) used in the Biacore assay are not described; also called FcgR3a

human OX40 [14] = biological target: T2, human OX40; assay: SPR (Biacore), mean KD; Ab1 protein A eluate without high pH treatment (reference)
human FcγR3a [15] = biological target: T3, human FcγR3a; assay: as above
human OX40 [16] = biological target: T2, human OX40; assay: SPR (Biacore), mean KD; Ab1 brought to pH 11.2 and neutralized at once (t0)
human FcγR3a [17] = biological target: T3, human FcγR3a; assay: as above
human OX40 [18] = biological target: T2, human OX40; assay: SPR (Biacore), mean KD; Ab1 after 2 h at pH 11.2
human FcγR3a [19] = biological target: T3, human FcγR3a; assay: SPR (Biacore), mean KD; Ab1 after 2 h at pH 11.2
human CD38 [20] = biological target: T4, human CD38 (human, UniProt P28907 43-300, limits assumed); assay: surface plasmon resonance; mean KD; PA eluate without high pH treatment
T4 construct: also called hsCD38; cluster of differentiation 38

human CD38 [21] = biological target: T4, human CD38; assay: binding affinity assay; sample after 0.8M Arg, pH 5.5
human CD38 [22] = biological target: T4, human CD38; assay: binding affinity assay; sample after S/D treatment
human CD38 [23] = biological target: T4, human CD38; assay: surface plasmon resonance; mean KD; high pH hold time 2 h
human CD38 [24] = biological target: T4, human CD38; assay: surface plasmon resonance; mean KD; high pH hold time 0 h
human CD38 [25] = biological target: T4, human CD38; assay: binding affinity assay; sample after high pH treatment, against RS
human CD38 [26] = biological target: T4, human CD38; assay: binding affinity assay; sample after S/D treatment, against RS
human CD38 [27] = biological target: T4, human CD38; assay: binding affinity assay; sample after 0.8M Arg, pH 4.0, against RS
human CD38 [28] = biological target: T4, human CD38; assay: binding affinity assay; sample after 0.8M Arg, pH 4.0
human CD38 [29] = biological target: T4, human CD38; assay: binding affinity assay; sample after 0.8M Arg, pH 5.5, against RS
human CD38 [30] = biological target: T4, human CD38; assay: binding affinity assay; reference sample, no treatment
human CD38 [31] = biological target: T4, human CD38; assay: binding affinity assay; sample after high pH treatment
human CD38 [32] = biological target: T4, human CD38; assay: surface plasmon resonance; mean KD; high pH hold time 1 h

CD3ε on Jurkat-NFAT responder cells, sequence (P07766 23-207): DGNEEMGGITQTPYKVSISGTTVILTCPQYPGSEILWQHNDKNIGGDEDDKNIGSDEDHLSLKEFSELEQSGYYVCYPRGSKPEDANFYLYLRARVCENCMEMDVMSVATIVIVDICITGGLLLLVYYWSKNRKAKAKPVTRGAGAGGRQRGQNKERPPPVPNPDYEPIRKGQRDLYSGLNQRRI
T3 sequence (P08637 17-208 limits assumed): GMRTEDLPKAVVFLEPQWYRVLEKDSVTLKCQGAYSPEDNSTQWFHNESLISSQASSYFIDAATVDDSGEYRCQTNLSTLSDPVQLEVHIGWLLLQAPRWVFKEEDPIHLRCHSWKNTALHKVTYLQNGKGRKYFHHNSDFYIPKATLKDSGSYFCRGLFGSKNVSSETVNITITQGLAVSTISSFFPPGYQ

Average rel KD (Human EGFR-his [1]): 1.02 ratio to reference | Average rel KD (Human EGFR-his [2]): 1.15 ratio to reference | Average rel KD (Human EGFR-his [3]): 1 ratio to reference | Relative KD R1 (Human EGFR-his [4]): 1.11 ratio to reference | Relative KD R1 (Human EGFR-his [5]): 0.988 ratio to reference | Relative KD R1 (Human EGFR-his [6]): 1.02 ratio to reference | Average rel KD (Human EGFR-his [7]): 1.09 ratio to reference | Relative potency (%) (Jurkat-NFAT luciferase reporter, EC50reference/EC50sample x 100, reference High pH t0) [8]: 97% and 85% and 67% | Relative potency (%) (Jurkat-NFAT luciferase reporter, EC50reference/EC50sample x 100, reference High pH t0) [9]: 97% and 85% and 67% | Average rel KD (Human EGFR-his [10]): 0.98 ratio to reference | Relative KD R1 (Human EGFR-his [11]): 1.17 ratio to reference
B1: BEAT®3 (bispecific antibody, human IgG1, kappa, L234A L235A)
chain 1: EVQLVESGGGLVQPGGSLRLSCAASGFTFNTYAMNWVRQAPGKGLEWVARIRSKYNNYATYYADSVKSRFTISRDDSKNTLYLQMNSLRAEDTAVYYCVRHGNFGNSYVSYFAYWGQGTTVTVSSGGGGSGGGGSGGGGSEIVVTQSPATLSVSPGERATLSCRSSTGAVTESNYANWVQEKPGQAFRGLIGGANKRAPGVPARFSGSLSGDEATLTISSLQSEDFAVYYCALFYSNTWVFGQGTKLEIKGGGGTQVQLQESGPGLVKPSETLSLTCTVSGGSVSSGDYYWTWIRQSPGKGLEWIGHIYYSGNTNYNPSLKSRLTISIDTSKTQFSLKLSSVTAADTAIYYCVRDRVTGAFDIWGQGTMVTVSSASTKGPSVFPLAPSSKSTSGGTAALGCLVKDYFPEPVTVSWNSGALTSGVHTFPAVLQSSGLYSLSSVVTVPSSSLGTQTYICNVNHKPSNTKVDKKVEPKSCDKTHTCPPCPAPEAAGGPSVFLFPPKPKDTLMISRTPEVTCVVVDVSHEDPEVQFKWYVDGVEVHNAKTKPREEQYNSTFRVVSVLTVLHQDWLNGKEYKCKVSNKALPAPIEKTISKTKGQPREPAVYTLPPSREEMTKNQVKLVCLVTGFYPSDIAVEWESSGQPENNYYTTPPMLDSDGSFSLVSWLNVDKSRWQQGNIFSCSVMHEALHNRFTQKSLSLSPG
chain 2: not shown
chain 3: DKTHTCPPCPAPEAAGGPSVFLFPPKPKDTLMISRTPEVTCVVVDVSHEDPEVKFNWYVDGVEVHNAKTKPREEQYNSTYRVVSVLTVLHQDWLNGKEYKCKVSNKALPAPIEKTISKAKGQPREPEVATFPPSRDELTKNQVTLVCLVTGFYPSDIAVEWESNGQPENNYKTDPPLLESDGSFALSSRLRVDKSRWQQGNVFSCSVMHEALHNHYTQKSLSLSPG

Kd (human OX40 [12]): 207000 pM | Kd (human FcγR3a [13]): 744000 pM | Kd (human OX40 [14]): 198000 pM | Kd (human FcγR3a [15]): 689000 pM | Kd (human OX40 [16]): 229000 pM | Kd (human FcγR3a [17]): 760000 pM | Kd (human OX40 [18]): 224000 pM | Kd (human FcγR3a [19]): 638000 pM
B2: Ab1 (antibody, human IgG1, kappa)
chain 1: not shown
chain 2: EIVLTQSPATLSLSPGERATLSCRASSSVSYMHWYQQKPGQAPRPWIYATSNRATGIPARFSGSGSGTDYTLTISSLEPEDFAVYYCQQWSSNPWTFGQGTKVEIKRTVAAPSVFIFPPSDEQLKSGTASVVCLLNNFYPREAKVQWKVDNALQSGNSQESVTEQDSKDSTYSLSSTLTLSKADYEKHKVYACEVTHQGLSSPVTKSFNRGEC
notes: The samples PA eluate, t0, t1 and t2 are the same antibody before and after incubation at pH 11.2 for 0, 1 and 2 h; also called humanized IgG1; PA eluate

Kd (human CD38 [20]): 483 pM | Kd (human CD38 [21]): 439 pM | koff (human CD38 [21]): 0.000459 s⁻¹ | kon (human CD38 [21]): 1.05e+06 M⁻¹ s⁻¹ | Kd (human CD38 [22]): 341 pM | koff (human CD38 [22]): 0.000376 s⁻¹ | kon (human CD38 [22]): 1.11e+06 M⁻¹ s⁻¹ | Kd (human CD38 [23]): 485 pM | Kd (human CD38 [24]): 504 pM | % deviation EC50 (human CD38 [25]): 1.7% | % deviation EC50 (human CD38 [26]): -15.4% | % deviation EC50 (human CD38 [27]): 3.5% | Kd (human CD38 [28]): 507 pM | koff (human CD38 [28]): 0.000521 s⁻¹ | kon (human CD38 [28]): 1.03e+06 M⁻¹ s⁻¹ | % deviation EC50 (human CD38 [29]): 0.7% | % deviation EC50 (human CD38 [30]): 0% | Kd (human CD38 [30]): 442 pM | koff (human CD38 [30]): 0.000457 s⁻¹ | kon (human CD38 [30]): 1.03e+06 M⁻¹ s⁻¹ | Kd (human CD38 [31]): 467 pM | koff (human CD38 [31]): 0.000483 s⁻¹ | kon (human CD38 [31]): 1.04e+06 M⁻¹ s⁻¹ | Kd (human CD38 [32]): 547 pM
B3: BEAT®2 (bispecific antibody, human IgG1, kappa, L234A L235A)
chain 1: not shown
chain 2: QVTLKESGPTLVKPTQTLTLTCTFSGLSLSTSGKGVGWIRQPPGKALEWLAHIWWDDDKRYNPALKSRLTITKDTSKNQVVLTMTNMDPVDTATYYCARIELGRSYVMDYWGQGTLVTVSSASTKGPSVFPLAPSSKSTSGGTAALGCLVKDYFPEPVTVSWNSGALTSGVHTFPAVLQSSGLYSLSSVVTVPSSSLGTQTYICNVNHKPSNTKVDKKVEPKSCDKTHTCPPCPAPEAAGGPSVFLFPPKPKDTLMISRTPEVTCVVVDVSHEDPEVQFKWYVDGVEVHNAKTKPREEQYNSTFRVVSVLTVLHQDWLNGKEYKCKVSNKALPAPIEKTISKTKGQPREPAVYTLPPSREEMTKNQVKLVCLVTGFYPSDIAVEWESSGQPENNYYTTPPMLDSDGSFSLVSWLNVDKSRWQQGNIFSCSVMHEALHNRFTQKSLSLSPG
chain 3: not shown
